This assay concerns the target WT PKCβII catalytic domain (UniProt P05771-2 321-673, primed (phosphorylated) at the three PKC priming sites (T-loop, turn motif, hydrophobic motif)). The experiment in a line: FP; representative curve.

Usually Kd stands for a measure of binding affinity in units of concentration. The low end stands for higher affinity, the high end for lower affinity.

FAM = fluorescein label

Chain of WT PKCβII catalytic domain (P05771 other isoform, or with tags, fused parts or gaps): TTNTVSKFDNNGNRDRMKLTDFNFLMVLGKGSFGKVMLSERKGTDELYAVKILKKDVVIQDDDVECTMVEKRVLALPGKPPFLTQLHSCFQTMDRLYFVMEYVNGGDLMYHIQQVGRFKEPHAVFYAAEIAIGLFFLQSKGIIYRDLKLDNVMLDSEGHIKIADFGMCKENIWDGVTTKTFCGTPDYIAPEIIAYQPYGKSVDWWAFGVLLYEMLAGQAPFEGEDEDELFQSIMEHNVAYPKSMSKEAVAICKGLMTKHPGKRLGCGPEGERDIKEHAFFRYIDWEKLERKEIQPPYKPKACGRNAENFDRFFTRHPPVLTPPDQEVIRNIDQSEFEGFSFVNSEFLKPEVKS

Regarding {FAM}-ESTVRFARKGSLRQKNVH-NH2 [Fluorescein-PSS peptide], the Kd was 39 µM.

(Values after PMC12687424 (2025).)
